Where two headings read alike, the source gives them in different places.
T1: biotinylated human IL-33 (human, UniProt O95760 112-270, biotin-labeled with EZ-LINK NHS-PEG4-Biotin)
T1 construct: also called biotin-huIL-33
T1 sequence (looked up): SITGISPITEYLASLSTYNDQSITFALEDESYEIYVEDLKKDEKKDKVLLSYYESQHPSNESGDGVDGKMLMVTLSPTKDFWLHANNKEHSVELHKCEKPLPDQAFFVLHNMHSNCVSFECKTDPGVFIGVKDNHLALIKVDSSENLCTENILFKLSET

T2: biotinylated cyno IL-33 (cynomolgus monkey, UniProt A0A2K5W3I1 112-269, biotin-labeled with EZ-LINK NHS-PEG4-Biotin)
T2 construct: also called biotin-cyIL-33
T2 sequence: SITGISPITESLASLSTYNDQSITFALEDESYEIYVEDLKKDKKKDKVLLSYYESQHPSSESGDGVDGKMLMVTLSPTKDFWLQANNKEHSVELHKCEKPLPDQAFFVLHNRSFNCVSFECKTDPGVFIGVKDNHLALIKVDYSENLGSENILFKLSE

T3: human ST2L on HEK-BLUE IL-33/IL-1beta cells (human, UniProt Q01638 19-556)
T3 sequence: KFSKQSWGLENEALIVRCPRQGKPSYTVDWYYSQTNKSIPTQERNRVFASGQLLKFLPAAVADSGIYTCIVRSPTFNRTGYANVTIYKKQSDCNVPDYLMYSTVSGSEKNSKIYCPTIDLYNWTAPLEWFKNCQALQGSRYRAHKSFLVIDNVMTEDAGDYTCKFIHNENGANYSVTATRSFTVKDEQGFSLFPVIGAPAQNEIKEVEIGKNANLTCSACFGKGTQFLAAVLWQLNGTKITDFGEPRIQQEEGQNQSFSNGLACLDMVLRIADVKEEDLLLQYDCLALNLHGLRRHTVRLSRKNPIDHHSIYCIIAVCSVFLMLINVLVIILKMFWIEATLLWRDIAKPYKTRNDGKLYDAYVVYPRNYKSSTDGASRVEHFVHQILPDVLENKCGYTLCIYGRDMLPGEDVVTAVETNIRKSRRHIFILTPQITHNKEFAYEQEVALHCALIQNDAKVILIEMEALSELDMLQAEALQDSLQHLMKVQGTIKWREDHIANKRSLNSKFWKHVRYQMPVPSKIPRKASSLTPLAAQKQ

T4: cynomolgus monkey N-terminal 6-His-tagged and C-terminal Avi-tagged IL-33 (S112-T270) (cynomolgus monkey)
T4 chain: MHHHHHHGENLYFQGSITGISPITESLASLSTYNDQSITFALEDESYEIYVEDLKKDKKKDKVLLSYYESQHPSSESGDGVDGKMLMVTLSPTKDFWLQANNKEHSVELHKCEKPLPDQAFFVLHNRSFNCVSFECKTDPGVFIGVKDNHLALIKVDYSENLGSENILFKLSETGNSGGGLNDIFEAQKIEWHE

B1: H4H9640P (antibody, IgG4, V domains shown)
VH: QVQLQESGPGLVKPSETLSLTCTVSGGSISSYYWSWIRQPPGKGLELIGYIYYSGSTNYNPSLKSRVTISVDTSKNHFSLKLSSVTAADTAVYYCARSQYTSSWYGSFDIWGQGTMVTVSS
VL: DIQMTQSPSSVSASVGDRVTITCRASQGISTWLAWFQQKPGKAPKLLIYAASTLQGGVPSRFSGSGSGPEFTLTISSLQPEDFATYYCQQANSFPWTFGQGTKVEIK
notes: also called RG6
B2: human IL-33 (R&D Systems, #3625-IL-010/CF) (ligand, UniProt O95760 112-270, looked up)
chain: T1 sequence (looked up)
B3: H4H9629P (antibody, IgG4, V domains shown)
VH: EVQLVESGGGLVQPGGSLRLSCAASGFTFRSFAMSWVRQAPGKGLELVSDLRTSGGSTYYADSVKGRLTISRDNSKNTLYLQMNSLRAEDTAVYYCAKSHYSTSWFGGFDYWGQGTLVTVSS
VL: DIQMTQSPSSVSASVGDRVTITCRASQGFSSWLAWYQQKPGKAPKLLIYAASSLQSGVPSRFSGSGSGTDFTLTITNLQPEDFATYYCQQANSFPLTFGGGTKVEIK
notes: also called RG4
B4: H1M9568N (antibody, IgG1, V domains shown)
VH: QVLLVQSGAEVKKPGATVKVSCKASGSTFTGYYMHWVRQAPGQGLEWMGWINPNNGGTNYAQKFQGRVTMTRDTSISTAYMELSRLRSDDTAVYYCARELRYNWKSWGQGTLVTVSS
VL: EIVLTQSPGTLSLSPGERVTLSCRASQSVGRPYLAWYQQIPGQAPRLLIYGASSRATDIPDRFSGNGSGTDFTLTISRLEPEDFAVYYCQQYDNSPYTFGQGTRLEIK
notes: also called RG3
B5: cyno IL-33 N-His (ligand)
chain: MGSSHHHHHHSSGLVPRGSHMSITGISPITESLASLSTYNDQSITFALEDESYEIYVEDLKKDKKKDKVLLSYYESQHPSSESGDGVDGKMLMVTLSPTKDFWLQANNKEHSVELHKCEKPLPDQAFFVLHNRSFNCVSFECKTDPGVFIGVKDNHLALIKVDYSENLGSENILFKLSET

Columns and labels:
[1] = molecular target: B2; test: cell-based or functional assay
[2] = molecular target: B2; test: cell-based or functional assay; remark: listed apart in the source
[3] = molecular target: B2; test: SPR Biacore T200, 37 C
Summary of the method: (§1)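 Antibodies captured via anti-Fc on CM5 chip; IL-33 injected at 3.7–100 nM (three-fold series), 4 min association, 10 min dissociation, 30 μl/min, ADA pH 7.4 buffer with 0.15 M NaCl, EDTA, Tween-20, at 25 °C or 37 °C. KD = koff/kon from 1:1 Langmuir fit; t1/2 = ln(2)/(60*koff).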

cyno IL-33 N-His [4] = molecular target: B5; test: SPR Biacore T200, 37 C
Summary of the method: as §1

[5] = molecular target: B2; test: cell-based or functional assay; remark: listed apart in the source
[6] = molecular target: B2; test: cell-based or functional assay; remark: listed apart in the source
[7] = molecular target: B2; test: SPR Biacore T200, 25 C
Summary of the method: as §1

cyno IL-33 N-His [8] = molecular target: B5; test: SPR Biacore T200, 25 C
Summary of the method: as §1

[9] = molecular target: B2; test: cell-based or functional assay; remark: listed apart in the source
biotinylated human IL-33 = molecular target: T1, biotinylated human IL-33; test: competitive ELISA, biotin-huIL-33 to coated hST2-Fc
Protocol: The ability of the anti-IL-33 antibody 10C12.38.H6.87Y.58I IgG4 and each anti-IL-33 antibody listed in Table 5 (RG1-RG20) to block either human IL-33 or cyno IL-33 binding to human ST2 receptor was tested in a competitive binding ELISA. Briefly, 1 μg/ml of recombinant human ST2-Fc chimera protein prepared in coating buffer (50 mM sodium carbonate, pH 9.6) was coated on a 384-well MAXISORP® plate (Nalgene Nunc International; Rochester, N.Y.) and incubated overnight at 4° C. On the next day, non-specific binding was blocked with PBS containing 0.5% (w/v) solution of bovine serum albumin (BSA). Fixed concentrations of biotinylated human or cyno IL-33 prepared in assay buffer (25 mM PBS, pH 7.2, 0.1% BSA, 0.05% TWEEN®-20) were mixed with an equal volume of serially-diluted anti-IL-33 antibodies or assay buffer alone and incubated for 1 h at room temperature. The final assay concentrations of biotinylated human IL-33 or cyno IL-33 were 20 pM and 45 pM, respectively, and the final assay concentration of each antibody ranged from 0-300 nM. The pre-mixed solutions were added to the ST2-Fc coated plate and incubated for 1 h at room temperature. The binding of biotinylated IL-33 to coated ST2-Fc was detected by the sequential addition of Streptavidin Poly-HRP80 (Fitzgerald; Buckinghamshire, UK) and 3,3′,5,5′-tetramethyl benzidine (TMB) Microwell Peroxidase Substrate System (KPL; Gaithersburg, Md.). The absorbance (450 nm) was recorded using a […] ASCENT® plate reader (Thermo Scientific; Rockford, Ill.). The binding activity (%) of biotin-IL-33 to ST2 in the presence of anti-IL-33 was plotted as a function of antibody concentration. The data generated were fitted to a four-parameter equation to determine IC₅₀ values for each antibody (FIGS. 25A and 25B) using Prism software (Graphpad Software; La Jolla, Calif.). The maximum blocking (%) of each antibody was calculated as the ratio of the reduction in signal measured in the presence of antibody relative to the difference between the signal with IL-33 alone and background measurements.

[10] = molecular target: B2; test: cell-based or functional assay; remark: listed apart in the source
biotinylated cyno IL-33 = molecular target: T2, biotinylated cyno IL-33; test: competitive ELISA, biotin-cyIL-33 to coated hST2-Fc
Summary of the method: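 Recombinant human ST2-Fc coated at 1 μg/ml; biotin-IL-33 (final 20 pM human, 45 pM cyno) premixed 1 h RT with serially diluted antibody (0–300 nM final), then bound to ST2-Fc 1 h RT. Streptavidin-polyHRP/TMB, A450; IC₅₀ from four-parameter fit, max blocking relative to IL-33-alone signal minus background.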

[11] = molecular target: T3, human ST2L on HEK-BLUE IL-33/IL-1beta …; test: cell-based or functional assay
[12] = molecular target: B2; test: cell-based or functional assay; remark: listed apart in the source
[13] = molecular target: B2; test: cell-based or functional assay; remark: listed apart in the source
[14] = molecular target: T4, cynomolgus monkey N-terminal …; test: cell-based or functional assay
[15] = molecular target: T3, human ST2L on HEK-BLUE IL-33/IL-1beta …; test: cell-based or functional assay; remark: listed apart in the source

IC50, IL-33-induced phospho-p38 in primary human basophils, 500 pM hIL-33 [2] [M]	Kd [3] [nM]	koff [3] [s⁻¹]	kon [3] [M⁻¹ s⁻¹]	t1/2 [3] [min]	Kd (cyno IL-33 N-His [4]) [nM]	koff (cyno IL-33 N-His [4]) [s⁻¹]	kon (cyno IL-33 N-His [4]) [M⁻¹ s⁻¹]	t1/2 (cyno IL-33 N-His [4]) [min]	Ph-p38 MFI at 2 nM Ab (500 pM human IL-33, primary basophils) [5] [MFI]	Ph-p38 MFI at 0.4 nM Ab (500 pM human IL-33, primary basophils) [6] [MFI]	Kd [7] [nM]	koff [7] [s⁻¹]	kon [7] [M⁻¹ s⁻¹]	t1/2 [7] [min]	Kd (cyno IL-33 N-His [8]) [nM]	koff (cyno IL-33 N-His [8]) [s⁻¹]	IC50 (biotinylated human IL-33) [nM]	Maximum Blocking (biotinylated human IL-33) [%]	IC50; SEAP reporter (OD 620), HEK-BLUE IL-33/IL-1beta cells, 10 pM hIL-33 [10] [M]	Binder	also measured
3.9e-13	0.359	0.000626	1.74e+06	18	4.2	0.0392	9.34e+06	0	52	99	0.549	0.000438	797000	26	2.17	0.000528	0.19	80	6.1e-10	B1	IC50 (read off the curve) [1]: ~0.0004 nM; kon (cyno IL-33 N-His [8]): 244000 M⁻¹ s⁻¹; t1/2 (cyno IL-33 N-His [8]): 22 min; IC50; IFN-gamma ELISA, primary human NK cells, 260 pM hIL-33 + IL-12 [9]: 2.4e-09 M; IC50 (biotinylated cyno IL-33): 45 nM; Maximum Blocking (biotinylated cyno IL-33): 25%
																				B2	EC50 (SEAP reporter OD 620, HEK-BLUE IL-33/IL-1beta cells) [11]: 0.0055 nM
3.6e-13	0.261	0.000738	2.82e+06	16	547	0.000502	916	23	38	67	0.559	0.000632	1.13e+06	18	54	0.0204	0.092	82	3.3e-11	B3	IC50 (read off the curve) [12]: 0.0003 to 0.0004 nM; kon (cyno IL-33 N-His [8]): 379000 M⁻¹ s⁻¹; t1/2 (cyno IL-33 N-His [8]): 1 min; IC50 (read off the curve) [13]: 0.0003 to 0.0004 nM
4e-13									38	88							0.19	85	1.1e-10	B4	IC50 (read off the curve) [12]: ~0.0004 nM; IC50; SEAP reporter (OD 620), HEK-BLUE IL-33/IL-1beta cells, 5 pM cyno IL-33 (5pM cIL-33-Nhis) [14]: 2.9e-08 M; IC50 (biotinylated cyno IL-33): 77 nM; Maximum Blocking (biotinylated cyno IL-33): 45%; IC50 (read off the curve) [13]: ~0.0004 nM
																				B5	EC50 (SEAP reporter OD 620, HEK-BLUE IL-33/IL-1beta cells) [15]: 0.004 nM
